Measured values taken from paper doi:10.1101/857730.

Biological target: Photorhabdus luminescens TcdA1 (TcA subunit of the Tc toxin) (P. luminescens) (UniProt Q9RN43)
Test: cryo-EM structure

## Photorhabdus luminescens TcdA1 (TcA subunit of the Tc toxin), Q9RN43 1-2516
  stoichiometry N: 5
